Experimental data taken from patent US20230330254A1 (Regeneron, published 2023).
Positions count from the first letter of the chain named. Read-outs that look alike come from different tables or passages of the source.

B1: H4H30484P2 (antibody, V domains shown)
VH: EVQLVESGGGLVQPGGSLKLSCAASGFTFSGSAMHWVRQASGKGLEWVGRITSKANSYATAYDASVKGRFTISRDDSKNTAYLQMNSLKTEDTAVYYCTRQRFLEFLFLDYWGQGTLVTVSS
VL: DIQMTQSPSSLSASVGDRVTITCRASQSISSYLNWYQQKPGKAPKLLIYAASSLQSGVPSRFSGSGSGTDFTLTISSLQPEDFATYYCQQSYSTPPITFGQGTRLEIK
notes: parental antibody without Q-tag; also called parent of REGN5619
B2: H1M30345N (antibody, V domains shown)
VH: EVQLVESGGGLVKPGGSLRLSCAASGFIFSRYSMNWVRQAPGKGLEWVSSMSSNSKNTYYADSVKGRFTISRDNAKNSLFLQMNTLRAEDTAVYYCARDGYTLRAFDIWGQGTMVTVSS
VL: EIVLTQSPGTLSLSPGERDTLSCRASQSIAGRYVAWYQQKPGQAPRLLIYGASSRATGIPDRFSGSGSGTDFTLTISRLEPEDFAVYYCQQYGSSPWTFGQGTKVEIK
B3: REGN9278-M3190 (antibody, human IgG4 S228P, kappa, V domains shown)
VH: QVQLQQWGAGLLKPSETLSLTCAVYGGSFSGYYWSWIRQPPGKGLEWIGEINHAGSTNYNPSLKSRITISVDTSKNQFSLKLSSVTAADTAVYYCARGWYYGSGSYHRNWFDPWGQGTLVTVSS
VL: EIVLTQSPGTLSLSPGERATLSCRASQSVYYSYLAWYQQKPGQAPRLLIYGASNRATGIPDRFSGSGSGTDFTLTISRLEPEDFAVYYCQQYGNSPWTFGQGTKVEIKR
modifications: linker-payload M3190 (LP11) on Gln 3 of the N-terminal Q-tag LLQGSG
notes: antibody-tethered drug conjugate; also called REGN9278 ATDC
B4: H2aM30341N (antibody, V domains shown)
VH: B3 VH
VL: B2 VL with D19A, I29V, A30Y, G31Y, R32S, V34L, S54N, S94N
notes: parent of H4H30341N (REGN9278 without Q-tag); also called parent of REGN9278
B5: REGN9278 (antibody, human IgG4 S228P, kappa, V domains shown)
VH: B3 VH
VL: B3 VL
notes: IgG4; Q-tag on light chain N-terminus; also called mAb 19; REGN9278 unconjugated Ab
B6: REGN9267 (antibody, human IgG4 S228P, kappa)
heavy: not shown
light: EIVLTQSPGTLSLSPGERDTLSCRASQSIAGRYVAWYQQKPGQAPRLLIYGASSRATGIPDRFSGSGSGTDFTLTISRLEPEDFAVYYCQQYGSSPWTFGQGTKVEIKRTVAAPSVFIFPPSDEQLKSGTASVVCLLNNFYPREAKVQWKVDNALQSGNSQESVTEQDSKDSTYSLSSTLTLSKADYEKHKVYACEVTHQGLSSPVTKSFNRGEC
notes: IgG4; Q-tag on heavy chain N-terminus; also called mAb 5; REGN9267 unconjugated Ab
B7: H4H30452P (antibody, V domains shown)
VH: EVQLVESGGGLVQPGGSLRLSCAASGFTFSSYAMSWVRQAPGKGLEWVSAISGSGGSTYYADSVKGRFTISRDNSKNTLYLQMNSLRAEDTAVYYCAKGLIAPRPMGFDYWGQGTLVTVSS
VL: DIQMTQSPSSVSASVGDRVTITCRASQGINSWLAWYQQKPGKAPKLLIYAASSLQSGVPSRFSGSGSGTDFTLTISSLQPEDFATYYCHQADSFPYTFGQGTKLEIK
notes: parental antibody without Q-tag; also called parent of REGN7990
B8: REGN7988-M3190 (antibody, human IgG4 S228P, kappa, V domains shown)
VH: QVQLVESGGGVVQPGRSLRLSCAASGFTFSGYGIHWVRQAPGKGLVWVAVIWYDGSFKYYADSVKGRFTISRDNSKNTLYLQMNSLRAEDTAVYYCARGDSSSSGRYYYYGMDVWGQGTTVTVSS
VL: DIQMTQSPSSLSASVGDRVTITCRASQGIRNDLGWYQQKPGTAPKRLIFAASSLQSGVPSRFSGSGSGTEFTLTISSLQPEDFATYYCLQHNNYPPTFGGGTKVEIKR
modifications: linker-payload M3190 (LP11) on Gln 3 of the N-terminal Q-tag LLQGSG
B9: COMP Anti-GLP1R mAb1 conjugated to LP4 (antibody, human IgG4 S228P, kappa, V domains shown)
VH: QVTLKESGPGILQPSQTLSLTCSFSGFSLSTSGTGVGWIRQPSGKGLEWLSHIWWDDVKRYNPALKSRLTISRDTSYSQVFLRIASVDTADTATYYCARILDGTGPMDYWGQGTSVTVSS
VL: QIVLTQSPAIMSASPGEKVTMTCSASSRVTYMHWYQQRSGTSPKRWIYDTSKLASGVPARFSGSGSGTSYSLTISSMEAEDAATYYCQQWGNNPQYTFGGGTRLEIKR
modifications: azido-PEG3-amine on the Gln of the N-terminal Q-tag LLQGSG, clicked to LP4 (DIBAC-suc-PEG24-P9)
B10: COMP Anti-GLP1R mAb1 conjugated to LP1 (antibody, human IgG4 S228P, kappa, V domains shown)
VH: B9 VH
VL: B9 VL
modifications: azido-PEG3-amine on the Gln of the N-terminal Q-tag LLQGSG, clicked to LP1 (DIBAC-suc-PEG4-P9)
B11: COMP Anti-GLP1R mAb1 conjugated to LP2 (antibody, human IgG4 S228P, kappa, V domains shown)
VH: B9 VH
VL: B9 VL
modifications: azido-PEG3-amine on the Gln of the N-terminal Q-tag LLQGSG, clicked to LP2 (DIBAC-suc-PEG8-P9)
B12: COMP Anti-GLP1R mAb1 conjugated to LP3 (antibody, human IgG4 S228P, kappa, V domains shown)
VH: B9 VH
VL: B9 VL
modifications: azido-PEG3-amine on the Gln of the N-terminal Q-tag LLQGSG, clicked to LP3 (DIBAC-suc-PEG12-P9)
B13: REGN8052 (antibody, V domains shown)
VH: QVQLVESGGGVVQPARSLRLSCAASGFAFSRSAMHWVRQAPGKGLEWVAVISYDGSNKYYTDSVKGRFTISRDNSKNTLYLQMNTLRAEDTALYYCAKMYTTMDSFDYWGQGTLVTVSS
VL: DIQLTQSPSFLSASVGDRVTITCWASQGISSYLAWYQQKPGKAPKLLIYAASTLQSGVPSRFSGSGSGTEFTLTISSLQPEDFALYYCQQLNSYPRTFGQGTKVEIK
notes: parental antibody without Q-tag; also called parent of REGN8072
B14: REGN8072 (antibody, human IgG4 S228P, kappa, V domains shown)
VH: B13 VH
VL: DIQLTQSPSFLSASVGDRVTITCWASQGISSYLAWYQQKPGKAPKLLIYAASTLQSGVPSRFSGSGSGTEFTLTISSLQPEDFALYYCQQLNSYPRTFGQGTKVEIKR
notes: IgG4; Q-tag on light chain N-terminus; also called mAb 4; REGN8072 unconjugated Ab
B15: REGN8051 (antibody, V domains shown)
VH: QVQLVESGGGVGQPGRSLRLSCAASGFTFSRNAMHWVRQAPGKGLEWVAVISYDGSNKHYADSVKGRFTISRDNSKNTLYLEMNSLRVEDTAVYYCAKGGIPFDYWGQGTLVTVSS
VL: DIVMTQSPLSSPVTLGQPASISCRSSQSLVHFDGNTYLSWLHQRPGQPPRLLIYKISNRFSGVPDRFSGSGAGTDFTLKISRVEPEDVGVYYCMHATQFPYTFGQGTKLEIK
notes: parental antibody without Q-tag; also called parent of REGN8070
B16: REGN8070 (antibody, human IgG4 S228P, kappa, V domains shown)
VH: B15 VH
VL: DIVMTQSPLSSPVTLGQPASISCRSSQSLVHFDGNTYLSWLHQRPGQPPRLLIYKISNRFSGVPDRFSGSGAGTDFTLKISRVEPEDVGVYYCMHATQFPYTFGQGTKLEIKR
notes: IgG4; Q-tag on light chain N-terminus; also called mAb 16; REGN8070 unconjugated Ab

Assays:
[1] = target: T1, full-length human GLP1R on HEK293/CRE-Luc/hGLP1R cells (human, UniProt P43220 24-463); experiment: flow cytometry, hGLP1R cells
T1 construct: whole, on cells

[2] = target: T2, full-length cynomolgus GLP1R on HEK293/CRE-Luc/mfGLP1R cells (cynomolgus, UniProt F8V479 24-463); experiment: flow cytometry, mfGLP1R cells
T2 construct: whole, on cells

[3] = target: T3, N-terminal ectodomain of human GLP1R expressed with a myc-myc hexahistidine tag (human, UniProt P43220 24-145, limits assumed); experiment: SPR, captured via anti-hFc, 25 C
T3 construct: extracellular domain; also called hGLP1R-MMH; hGLP1R.mmh

[4] = target: T1, full-length human GLP1R on …; experiment: cell-based or functional assay
[5] = target: T3, N-terminal ectodomain of human GLP1R …; experiment: SPR, captured via anti-hFc, 25 C; remark: listed apart in the source
[6] = target: T1, full-length human GLP1R on …; experiment: cell-based or functional assay; remark: listed apart in the source

T3 sequence (P43220 24-145 limits assumed): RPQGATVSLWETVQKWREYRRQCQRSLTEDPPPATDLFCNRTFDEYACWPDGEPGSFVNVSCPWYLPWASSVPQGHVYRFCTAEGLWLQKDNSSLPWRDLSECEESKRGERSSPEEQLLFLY

| Binder | EC50 [1] [nM] | Flow S/N [1] [fold] | EC50 [2] [nM] | Flow S/N [2] [fold] | 90 nM hGLP1R.mmh Bound (RU) [3] [RU] | Kd [3] [nM] | t1/2 [3] [min] | further results |
| --- | --- | --- | --- | --- | --- | --- | --- | --- |
| B1 | 1.98 | 208 | 0.963 | 284 | 26 | 181 | 0.3 | koff [3]: 0.039 s⁻¹; kon [3]: 215000 M⁻¹ s⁻¹ |
| B2 | 1.64 | – | 3.54 | – | 61.7 | 0.16 | 102 | – |
| B3 | – | – | – | – | – | – | – | CRE-luc EC50 [4]: 0.376 nM; CRE-luc Relative Potency (% M2361 EC50) [4]: 4.3%; CRE-luc Relative Signal:Noise (% M2361) [4]: 115%; CRE-luc S/N [4]: 73.8 fold; 90 nM hGLP1R.mmh Bound (RU) [5]: 55.7 RU; Kd [5]: 1.1 nM; koff [5]: 0.000127 s⁻¹; kon [5]: 116000 M⁻¹ s⁻¹; t1/2 [5]: 91 min |
| B4 | 2.75 | 595 | 2.1 | 646 | 48.4 | 0.346 | 149 | koff [3]: 7.74e-05 s⁻¹; kon [3]: 224000 M⁻¹ s⁻¹ |
| B5 | 4.21 | 436 | 2.49 | 548 | – | – | – | – |
| B6 | 0.944 | – | 0.668 | – | – | – | – | – |
| B7 | 1.68 | 115 | – | – | 88.9 | 5.4 | 9.8 | koff [3]: 0.00118 s⁻¹; kon [3]: 218000 M⁻¹ s⁻¹ |
| B8 | – | – | – | – | – | – | – | CRE-luc EC50 [4]: 0.107 nM; CRE-luc Relative Potency (% M2361 EC50) [4]: 15.1%; CRE-luc Relative Signal:Noise (% M2361) [4]: 140%; CRE-luc S/N [4]: 90.1 fold |
| B9 | – | – | – | – | – | – | – | CRE-luc EC50 [6]: 0.0629 nM; CRE-luc Relative Potency (% P8 EC50) [6]: 55.3%; CRE-luc Relative Signal:Noise (% P8) [6]: 87.4%; CRE-luc S/N [6]: 284 fold |
| B10 | – | – | – | – | – | – | – | CRE-luc EC50 [6]: 0.0282 nM; CRE-luc Relative Potency (% P8 EC50) [6]: 96.7%; CRE-luc Relative Signal:Noise (% P8) [6]: 90.3%; CRE-luc S/N [6]: 213 fold |
| B11 | – | – | – | – | – | – | – | CRE-luc EC50 [6]: 0.0217 nM; CRE-luc Relative Potency (% P8 EC50) [6]: 126%; CRE-luc Relative Signal:Noise (% P8) [6]: 96.4%; CRE-luc S/N [6]: 227 fold |
| B12 | – | – | – | – | – | – | – | CRE-luc EC50 [6]: 0.044 nM; CRE-luc Relative Potency (% P8 EC50) [6]: 62.1%; CRE-luc Relative Signal:Noise (% P8) [6]: 115%; CRE-luc S/N [6]: 272 fold |
| B13 | 0.705 | – | 2.13 | – | 98.7 | 5.49 | 9.6 | – |
| B14 | 1.42 | – | – | – | – | – | – | – |
| B15 | 7.39 | 560 | 4.12 | 494 | 73.7 | 3.41 | 54.7 | koff [3]: 0.000211 s⁻¹; kon [3]: 61900 M⁻¹ s⁻¹ |
| B16 | 3.44 | 322 | 2.05 | 246 | – | – | – | – |
